Laboratory results taken from patent US20260007703A1.

Biological target: CD47 on A20 murine lymphoma cells (mouse) (UniProt Q61735)
Test: cell-based or functional assay

Chain of UniProt Q61735 (Q61735 19-303): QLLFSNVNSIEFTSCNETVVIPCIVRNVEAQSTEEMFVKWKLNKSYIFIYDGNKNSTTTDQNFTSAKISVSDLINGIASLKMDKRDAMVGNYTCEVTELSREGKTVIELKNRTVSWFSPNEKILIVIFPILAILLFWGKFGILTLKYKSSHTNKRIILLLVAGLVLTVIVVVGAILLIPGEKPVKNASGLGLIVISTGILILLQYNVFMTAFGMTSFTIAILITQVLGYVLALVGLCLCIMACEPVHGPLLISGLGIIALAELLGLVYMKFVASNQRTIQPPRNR

Q: How did the phagocytosis of DiI-labelled A20 tumor cells by bone marrow-derived macrophages turn out when “FITC-labeled anti-mouse CD47 monoclonal antibody, clone miap301” was run?
A: 60 % increase
